{"source": "patent US20190352644A1", "about": "“INHIBITION OF MITOCHONDRIAL HYPOXIC STRESS INDUCED RNA EDITING BY APOBEC3G CYTIDINE DEAMINASE” (Health Research, Inc., priority 2015, published 2019)", "molecules": {"B1": {"name": "IFNγ: Human IFNγ (PBL Assay Science; PeproTech in Example 3) (protein, UniProt P01579 24-161, looked up)", "Interferon gamma": "QDPYVKEAENLKKYFNAGHSDVADNGTLFLGILKNWKEESDRKIMQSQIVSFYFKLFKNFKDDQSIQKSVETIKEDMNVKFFNSNKKKRDDFEKLTNYSVTDLNVQRKAIHELIQVMAELSPAAKTGKRKRSQMLFRG"}}, "key": {"[1]": {"tested_on": "NK cells", "assay": "TM7SF3 C>U RNA editing in NK cells", "type": "cell-based, human", "settings": "cellular crowding with hypoxia, IFN-γ 50 ng/ml", "protocol": "The HuT78, JVM3 and NK-92 cell-lines were obtained from ATCC. Hut 78 cells were cultured in IMDM (ATCC) containing 20% Fetal Bovine serum (FBS) (Sigma-Aldrich), JVM3 cells were cultured in RPMI (ATCC) containing 10% FBS and NK-92 cells were cultured in Alpha Minimum Essential medium without ribonucleosides and deoxyribonucleosides (Life Technologies) but with 2 mM L-glutamine and 1.5 g/L sodium bicarbonate as well as 0.2 mM inositol, 0.1 mM 2-mercaptoethanol, 0.02 mM folic acid, 500 U/ml IL-2 (Aldesleukin—a kind gift from Novartis), 12.5% horse serum (ATCC) and 12.5% FBS. […]\nTotal RNA was isolated and reverse transcribed to generate cDNAs. […] To quantify RNA editing level, the major and minor chromatogram peak heights at putative edited nucleotides were quantified with Sequencher 5.0/5.1 software (Gene Codes, MI). […] For quantitative PCR to assess APOBEC3G and APOBEC3F gene expression, reactions using LightCycler™ 480 Probes Master and SYBR™ Green I dye were performed on a LightCycler™ 480 System (Roche). Quantification cycle (Cq) values were calculated by the instrument software using the maximum second derivative method, and the mean Cq value of duplicate PCR reactions was used for analysis."}, "[2]": {"tested_on": "monocyte enriched peripheral blood mononuclear cells (MEPs)", "assay": "SDHB c.136C>U RNA editing in interferon-treated MEPs (RT-PCR)", "type": "cell-based, human", "settings": "normoxic or hypoxic MEPs, 24 hours; IFN1 600 U per ml, IFNγ 200 U per ml; vs untreated", "from_the_text": "The TLA-HEK293T™ 293T human embryonic kidney cell-line was obtained from Open Biosystems® (Huntsville, Ala.). Peripheral blood mononuclear cells of anonymous platelet donors were isolated from peripheral blood in Trima Accel™ leukoreduction system chambers (Terumo BCT®, Lakewood, Colo.) after thrombocytapheresis, in accordance with a protocol approved by the institutional review board of Roswell Park Cancer Institute. A density gradient centrifugation method using polysucrose-containing Lymphocyte Separation Medium (Mediatech®, Manassas, Va.) was used for PBMC isolation. […]\nFor hypoxia, cells were cultured under 1% O2, 5% CO2 and 94% N2 in an Xvivo™ System (Biospherix®, Lacona, N.Y.). […] Differential viability of MEPs after 1-day culture in normoxia versus hypoxia was not observed as evaluated by Trypan blue stain. […]\nSDHB gene expression and c.136C>U RNA editing was quantified by RT-PCR. […]"}}}
{"molecule": "B1", "values": [{"measurement": "RNA editing in TM7SF3", "setting": "[1]", "value": "did not further increase"}, {"measurement": "increase of SDHB c.136C>U RNA editing level", "setting": "[2]", "value": "~3", "unit": "fold"}]}
